B1: OmCI (natural protein)
chain: DSESDCTGSEPVDAFQAFSEGKEAYVLVRSTDPKARDCLKGEPAGEKQDNTLPVMMTFKNGTDWASTDWTFTLDGAKVTATLGNLTQNREVVYDSQSHHCHVDKVEKEVPDYEMWMLDAGGLEVEVECCRQKLEELASGRNQMYPHLKDC
notes: also called Coversin

What was measured:
[1] = target: complement C5 (human (endogenous in serum)) (UniProt P01031); test: SPR
[2] = target: complement C5 (human (endogenous in serum), UniProt P01031 19-673; P01031 678-1676); test: SEC-MALS; 100 uL at 1 mg/mL on S200 10/300 in PBS; C5-OmCI with RaCI and EcuFab, with or without CirpT1 (2-fold molar excess, excess removed by SEC); conditions: both partners purified
Sequence of complement C5 (P01031 19-673, chain 1 of 2): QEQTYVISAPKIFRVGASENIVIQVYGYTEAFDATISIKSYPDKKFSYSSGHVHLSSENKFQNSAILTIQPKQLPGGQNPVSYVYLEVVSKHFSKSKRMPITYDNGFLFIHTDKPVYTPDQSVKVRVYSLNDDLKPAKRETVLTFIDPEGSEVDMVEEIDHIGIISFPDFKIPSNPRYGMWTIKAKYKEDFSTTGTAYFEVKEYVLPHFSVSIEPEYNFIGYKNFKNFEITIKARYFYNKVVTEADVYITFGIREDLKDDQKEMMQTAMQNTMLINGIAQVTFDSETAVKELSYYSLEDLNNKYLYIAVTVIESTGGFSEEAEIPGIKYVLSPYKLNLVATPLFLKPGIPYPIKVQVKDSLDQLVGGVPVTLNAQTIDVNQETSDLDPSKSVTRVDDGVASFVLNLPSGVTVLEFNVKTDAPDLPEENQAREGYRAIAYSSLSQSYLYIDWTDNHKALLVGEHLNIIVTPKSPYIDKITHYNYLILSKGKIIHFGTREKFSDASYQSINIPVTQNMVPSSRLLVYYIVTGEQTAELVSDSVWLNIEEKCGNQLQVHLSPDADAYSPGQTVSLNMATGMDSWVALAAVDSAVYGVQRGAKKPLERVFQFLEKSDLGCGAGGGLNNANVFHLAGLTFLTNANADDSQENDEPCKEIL
Sequence of complement C5 (P01031 678-1676, chain 2 of 2): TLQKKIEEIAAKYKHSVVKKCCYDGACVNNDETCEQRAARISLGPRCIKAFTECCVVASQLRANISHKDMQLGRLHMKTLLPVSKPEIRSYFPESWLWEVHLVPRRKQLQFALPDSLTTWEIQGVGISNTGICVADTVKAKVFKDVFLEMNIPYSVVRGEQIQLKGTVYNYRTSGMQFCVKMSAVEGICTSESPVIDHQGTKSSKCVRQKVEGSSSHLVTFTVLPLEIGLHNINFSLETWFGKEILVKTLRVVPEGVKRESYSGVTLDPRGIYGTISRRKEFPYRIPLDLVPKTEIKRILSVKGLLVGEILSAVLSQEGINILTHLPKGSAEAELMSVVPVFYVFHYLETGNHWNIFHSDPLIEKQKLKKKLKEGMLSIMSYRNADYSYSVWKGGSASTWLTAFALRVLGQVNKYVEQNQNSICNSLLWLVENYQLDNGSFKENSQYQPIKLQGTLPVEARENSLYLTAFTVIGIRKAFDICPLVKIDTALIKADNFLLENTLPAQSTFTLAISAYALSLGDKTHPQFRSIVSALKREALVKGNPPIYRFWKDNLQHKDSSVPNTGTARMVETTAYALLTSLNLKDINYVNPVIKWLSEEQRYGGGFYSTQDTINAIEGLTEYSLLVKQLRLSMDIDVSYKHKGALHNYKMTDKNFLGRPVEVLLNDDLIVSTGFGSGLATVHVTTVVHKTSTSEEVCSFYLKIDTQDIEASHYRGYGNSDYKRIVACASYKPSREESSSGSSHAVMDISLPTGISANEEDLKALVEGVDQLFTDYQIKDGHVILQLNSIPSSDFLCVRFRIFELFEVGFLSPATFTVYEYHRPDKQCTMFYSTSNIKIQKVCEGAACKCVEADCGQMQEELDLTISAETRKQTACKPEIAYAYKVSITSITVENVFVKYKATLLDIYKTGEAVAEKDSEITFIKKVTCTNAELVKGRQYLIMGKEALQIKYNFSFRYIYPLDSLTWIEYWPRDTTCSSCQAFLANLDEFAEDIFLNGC

Sequence of complement C5 (human (endogenous in serum)) (P01031 19-673, chain 1 of 2): as the sequence (P01031 19-673, chain 1 of 2) above
Sequence of complement C5 (human (endogenous in serum)) (P01031 678-1676, chain 2 of 2): as the sequence (P01031 678-1676, chain 2 of 2) above

Molecule	Kd [1]	binding result [2]
CirpT1 (complement inhibitor from Rhipicephalus pulchellus of the terminal pathway, family member 1) (natural protein)	10 nM	–
B1	–	binds

Reference: article PMC6955305, “An inhibitor of complement C5 provides structural insights into activation” (Proceedings of the National Academy of Sciences of the …, 2019)
